Data as given in the nanobody polyreactivity screen of Harvey et al. (2022).

Experiment: yeast display, Sf9 membrane polyspecificity reagent, FACS + sequencing; frameworks hold sequencing errors
How it was run: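 A nanobody's polyreactivity label depends on the gate it was sorted from. Yeast display cells were stained with 10% biotinylated, detergent-solubilized Sf9 membrane reagent for 1 hour at 4 °C, enriched on streptavidin microbeads and sorted by FACS. The low and high (top ~1%) gates were set on anti-HA fluorescence for expression and streptavidin fluorescence for reagent binding.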

Sequence | polyreactivity (PSR sort gate)
QVQLVESGGGLVQAGGSLRLSCAASGRIFGVYAMGWYRQAPGKERELVASISDGTITNYADSVKGRFTISRDNAKNTVYLQMNSLKPEDTAVYYCAATWSFVYGDYFEYDYWGQGTQVTVSS | low polyreactivity
QVQLVESGGGLVQAGGSLRLSCAASGRIFGVYAMGWYRQAPGKERELVASITWRGGSTYYADSVKGRFTISRDNAKNTVYLQMNSLKPEDTAVYYCAAAYWYAYEYWGQGTQVTVSS | high polyreactivity
QVQLVESGGGLVQAGGSLRLSCAASGRIFGVYAMGWYRQAPGKERELVAVINGRGSRTYYADSVKGRFTISRDNAKNTVYLQMNSLKPEDTAVYYCAAGYPDSEYDYWGQGTQVTVSS | high polyreactivity
QVQLVESGGGLVQAGGSLRLSCAASGRIFGWNAMGWYRQPPGKERELVAAISADGNTYYADSVKGRFTISRDNAKNTVYLQMNSLKPEDTAVYYCNAYVYSGYSIRDYWGQGTQVTVSS | high polyreactivity
QVQLVESGGGLVQAGGSLRLSCAASGRIFGWYAMGWYRQAPGKERELVAAISSADSTNYADSVKGRFTIARDNAKNTVYLQMNSLKPEDTAVYYCNAEGLPGNVVYGYYYWGQGTQLTVSS | low polyreactivity
QVQLVESGGGLVQAGGSLRLSCAASGRIFGWYAMGWYRQAPGKERELVATIRKSGGRTYYADSVKGRFTLSRDNAKNTVYFQMNSLKQEDTAVYYCAAENTAAGQGLWGEDYWGQGTQVTVSS | high polyreactivity
QVQLVESGGGLVQAGGSLRLSCAASGRIFGWYSMGWYRQAPGKERELVAAISSNGGSTYYADSVKGRFTISRDNAKNTVYLQMNSLKPEDTAVYFCAAVRVFQYKYDRFNYWGQGTQVTVSS | high polyreactivity
QVQLVESGGGLVQAGGSLRLSCAASGRIFGYNAMGWYRPAPGNERELVAAISWSGGNTYYADSVKGRFTISRDHAKNTVYLQMNSLKPEDTAVYYCNASPYRYRPSEYDYWGQGTQVTVSS | high polyreactivity
QVQLVESGGGLVQAGGSLRLSCAASGRIFGYNAMGWYRQAPGKERELVAAINSDGSKNYADSVKGRFTISRDNAKNTVYLQMNSLKPEDTAVYYCAADGHVGPLGVSFDSWGQGSQVTVSS | low polyreactivity
QVQLVESGGGLVQAGGSLRLSCAASGRIFGYNAMGWYRQAPGKERELVAAITTSGGSTYYADSVKGRFTISRDNAKNTVYLQMNSLKPEVTAVYYCAGDSLQVFYPYASDDYWGHGTQVTVSS | low polyreactivity
QVQLVESGGGLVQAGGSLRLSCAASGRIFGYNAMGWYRQAPGKERELVASIRSGGSTNYADSVKGRFTISRDNAKNTVYLQMNSLKPEDTAVYYCAKSYRWHLNGGLGWRLGNYWGQGTQVTVSS | high polyreactivity
QVQLVESGGGLVQAGGSLRLSCAASGRIFGYNAMGWYRQAPGKERELVASITRGGSTNYADSVKGRFTISRDNAKNTVYLQMNSLKPEDTAVYYCATRWPHYGGYYYWGQGTQVTVSS | high polyreactivity
QVQLVESGGGLVQAGGSLRLSCAASGRIFGYNAMGWYRQATGKERELVAGITRNDGSTYYADSVKGRFTISRDNAKNTVYLLMNSLKPEDTAVYYCYRYLHLAGSWGQGTQVTVSS | low polyreactivity
QVQLVESGGGLVQAGGSLRLSCAASGRIFGYNPMGWYRQAPGKERELVAAITTSGGSTYYADSVKGRFTISRDNAKNTVYLQMNSQKPEDTAVYYCARDSLQVFYPYASDDYWGQGTQVTVSS | low polyreactivity
QVQLVESGGGLVQAGGSLRLSCAASGRIFGYYAMGWFRQAPGKERELVATITFGGGSTYYADSVKGRFTISRDNAKNTVYLQMNSPKPEDTAVYYCAADSGYLGIYGDEYSWGQGTQVTVSS | low polyreactivity
QVQLVESGGGLVQAGGSLRLSCAASGRIFGYYAMGWSRQAPGKEWELVAAISSGGRTYYADSVKGRFTISRDNAKNTVYLQMNSLKPEDTAVYYCAARSRVPPAGPRYDYWGQGTQVTVSS | high polyreactivity
QVQLVESGGGLVQAGGSLRLSCAASGRIFGYYAMGWYRQAPGKERELVAAISSGGNTNYADSVKGRFTISRDNAKNTVYLQMYSLKPEDTAVFYCAAYHFSFGWIRVDYWGQGTQVTVSS | high polyreactivity
QVQLVESGGGLVQAGGSLRLSCAASGRIFGYYAMGWYRQAPGKERELVAAISWSGGRTYYADSVKGRFTISRDNAKNTVYLQMNSLKPEDTAVYYCNKVYRVPITEEYDYWGQGTQVTVSS | high polyreactivity
QVQLVESGGGLVQAGGSLRLSCAASGRIFGYYAMGWYRQAPGKERELVAAITRNGGSTYYADSVKGRFTISRDNAKNTVYLQMNSLKPEDTAVYYCAATKGGGRGYWGQGTQVTVSS | high polyreactivity
QVQLVESGGGLVQAGGSLRLSCAASGRIFGYYAMGWYRQAPGKERELVASIRRGTRTNYADSVKGRFTISRDNAKNTVYLQMNSLKPEDTAVYYCAATRFQFTTTPWYDYWGQGTQVTVSS | high polyreactivity
QVQLVESGGGLVQAGGSLRLSCAASGRIFGYYAMGWYRQAPGKERELVAVISWSGGSTYYADSVKGRFTISRDNAMNTVYLQMNSLKPEDSAVYYCAAERLYSIYDYWGQGTQVTVSS | high polyreactivity
QVQLVESGGGLVQAGGSLRLSCAASGRIFGYYARGWYRQAPGKEREFVAGITQRTDSTYYADSVKGRFTISRDNAKNTVYLQMNSLKPEDTAVYFCAARGYGGYHWGYYWGQGTQVTVSS | high polyreactivity

Sequence | polyreactivity (PSR sort gate)
QVQLVESGGGLVQAGGSLRLSCAASGRIFGYYTMGWYRQAPGKEREFVAAISYRGGSTYYADSVKGRFTISRDNAKNTVYLQKNSLKPEDTAVYYCNARKSYYTVRSYDSWGQGTQVTVSS | high polyreactivity
QVQLVESGGGLVQAGGSLRLSCAASGRIFGYYTMGWYRQAPGKERELVATITGGGGSTYYADSVKGRFTISRDNAKNTVYLQMNSLKPEDTAVYYCAKRNWKYVSHRHSYYETYDYWGQGTQVTVSS | high polyreactivity
QVQLVESGGGLVQAGGSLRLSCAASGRIFGYYVMGWYRQAPGKERELVAAINYDGGSTYYADSVKGRFTISRDNAKNTVYLQMNSLKPEDTAVYYCAAAIGNSEYGWRYDYWGQGTQVTVSS | low polyreactivity
QVQLVESGGGLVQAGGSLRLSCAASGRIFGYYVMGWYRQAPGQERELVARIRSGGNTYYADSVKGRFTISRDNAKNTVYLQMNSLKPEDTAVYYCNADPRTGWYKYDYWGQGTQVTVSS | high polyreactivity
QVQLVESGGGLVQAGGSLRLSCAASGRIFHGYAMGWYRQAPGKERELVAVIRSGVNTNYADSVKGRFTISRDNAKNTVYLQMNSLKPEDTAVYYCAVDYTPEDWGDDYWGQGTQVTVSS | low polyreactivity
QVQLVESGGGLVQAGGSLRLSCAASGRIFHKYTMGRYRQAPGKERELVAAISFSTGNTFYADSVKGRFTISRDTANNTVFLQMNSLKPEDTAVYYCATDVLYPDYDYWGQGTQVTVSS | low polyreactivity
QVQLVESGGGLVQAGGSLRLSCAASGRIFHRYAMGWDRQAPGKERELVAAINWRTGNTYYADSVKGRFTISRDNAKNTVYLQMNSLTPEDTAVYYCNARYRSDYWGIQYDYWGQGTQVTVSS | high polyreactivity
QVQLVESGGGLVQAGGSLRLSCAASGRIFHRYAMGWYRQAPGKERELVAAITRGGSTNYADSVKGRFTISRDNAKNTVYLQMNSLKPEDTAVYYCNADVYAWYLSHRYDYWGQGTQVTVSS | low polyreactivity
QVQLVESGGGLVQAGGSLRLSCAASGRIFHSYAMGWYRQAPGKERELVAAISSGGNTYYADSVKGRFTISRDNAKNTVYLQMNSLKPEDTAVYDCARDWDFLYDGFHSDSYEYWGQGTQVTVSS | low polyreactivity
QVQLVESGGGLVQAGGSLRLSCAASGRIFHSYAMGWYRQAPGKERELVASITWDSTSTNYADSVKGRFTISRDNAKNTVYLQMNSLKPEDTAVYYCNADESRYGFGYDYWGQGTQVTVSS | low polyreactivity
QVQLVESGGGLVQAGGSLRLSCAASGRIFHVNAMGWYRQAPGKEMDLVAAISTSGGRTYYADSVKGRFTISRDNAKNTVYLQMNSLKPEDTAVYYCAAVSRAPGLRYDYWGQGTQVTVSS | high polyreactivity
QVQLVESGGGLVQAGGSLRLSCAASGRIFHWYAMGWYRQAPGKERELVAAIRWTGGSTYYADSVKGRFTISRDNAKNTVYLQMNSLKREDTAVYYCAAKGYTGIFYEMDYWGQGTQVTVSS | low polyreactivity
QVQLVESGGGLVQAGGSLRLSCAASGRIFHYNTMGWYRQAPGKERELVAAITSSGGSTYYADSVKGRFTISRDNAKNTVYLQMNSLKPEDTAVYYCNAVFYRYGYKVDYWGQGTQVTVSS | high polyreactivity
QVQLVESGGGLVQAGGSLRLSCAASGRIFHYYAMGWYIKAPGKERELVAAITSSGGSTYYADSVKGRFTISRDNAKNTVYLKMNSLKPEDTAVYYCAARGRRVSAYYYWGQGTQVTVSS | high polyreactivity
QVQLVESGGGLVQAGGSLRLSCAASGRIFHYYAMGWYRQAPGKERELVAAISYSGTRTYYADSVKGRFTISRDNAKNTVYLQMNSLNPEDTAVYYCNAARSTNFDYWGQGTQVTVSS | high polyreactivity
QVQLVESGGGLVQAGGSLRLSCAASGRIFHYYAMGWYRQAPGKERELVADSSWSGGRTYYADSVKGRFTISRDNAKNTVYLQMNSLKPEDTAVYYCAAGHSYRPYYYYGEYDYWGQGTQVTVSS | high polyreactivity
QVQLVESGGGLVQAGGSLRLSCAASGRIFIDYAMGWYRQAPGKERELVATITSSGGSTYYADSVKGRFTISRDNAKNTVYLQMNSLKPEDTAVYYCNKEGSYDYDFWGQGTQVTVSS | low polyreactivity
QVQLVESGGGLVQAGGSLRLSCAASGRIFIGNAMGWYRQAPGKERELVAAISRRGGTTYYADSVKGRFTISRDNAKNTVYLQMNSLKPEDTAVYYCNKEWTYEHGYWGQGTQVTVSS | high polyreactivity
QVQLVESGGGLVQAGGSLRLSCAASGRIFIGNAMGWYRQAPGKERELVAAITQSGGSTYYADSVKGRFTISRDNAKNTVYLQMNSLKPEDTAVYYCSKALRRPRSGGNPGQAYGYWGQGTQVTVSS | low polyreactivity
QVQLVESGGGLVQAGGSLRLSCAASGRIFIGYAMGWYRQAPGKERELVAAISRSGGSTYYADSVKGRFTISRDNAKYTVYLQMNSLKPEDTAVYYCAASPPFGYYYWGQGTQVTVSS | high polyreactivity
QVQLVESGGGLVQAGGSLRLSCAASGRIFIGYAMGWYRQAPGKERELVAAITSGGGTYYADSVKGRFTISRDNAKNTVYLQMNSLKPEDTAVYYCAAAQRYPIKYYYWGQGTQVTVSS | low polyreactivity
